This note sets out measurements from US20120316071A1 (published 2012).

The target of assay [1] is T1, rHuman CD44/Fc Chimera, CF (R&D Systems Cat#3660-CD) (human, UniProt P16070 21-220).
T1 construct: Bought reagent
As to the kind of experiment: ECL Multispot (MSD) assay; antigen spotted on plate, Fab in solution.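 Further: fab bound 1 h at 20 °C, detected by TAG-labelled antibody electrochemiluminescence, signal relative to each well's blank, ratio of 4 or more marks a hit.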

For assay [2], the target named is T2, rHuman IGF-1 sR, CF (R&D Systems Cat#391-GR) (human, UniProt P08069 31-932).
T2 construct: Bought soluble receptor; the column head 'IGF-1' means IGF-1 sR; also called insulin-like growth factor-1 soluble receptor
The description is as above.

For assay [3], the target named is T3, rHuman P-Cadherin/Fc Chimera, CF (R&D Systems Cat#861-PC) (human, UniProt P22223 108-654).
T3 construct: Bought reagent
Described as above.

For assay [4], the target named is T4, rHuman Erythropoietin R/Fc Chimera, CF (R&D Systems Cat#963-ER) (human, UniProt P19235 25-250).
T4 construct: Bought reagent; also called EPO R; Epo R/Fc
T4 sequence (looked up): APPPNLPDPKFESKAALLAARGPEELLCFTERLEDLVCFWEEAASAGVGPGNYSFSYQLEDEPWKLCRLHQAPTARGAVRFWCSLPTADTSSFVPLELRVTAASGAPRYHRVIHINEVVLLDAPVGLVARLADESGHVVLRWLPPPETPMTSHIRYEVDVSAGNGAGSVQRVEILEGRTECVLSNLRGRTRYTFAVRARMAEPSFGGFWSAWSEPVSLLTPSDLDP
The assay is described as above.

For assay [5], the target named is T5, Recombinant Human DLL4 (R&D Systems Cat#1506-D4/CF) (human, UniProt Q9NR61 27-524).
T5 construct: Bought recombinant protein; also called delta-like protein 4; rHuman DLL4
Described as above.

Assay [6] has as its target T6, rHuman ErbB2/Fc Chimera, CF (R&D Systems Cat#1129-ER) (human, UniProt P04626 23-652).
T6 construct: Bought reagent; also called human epidermal growth factor 2 receptor
The assay is described as above.

Assay [7] has as its target T7, rHuman EGF R/Fc Chimera, CF (R&D Systems Cat#344-ER) (human, UniProt P00533 25-645).
T7 construct: Bought reagent; also called epidermal growth factor receptor
The assay is described as above.

Assay [8] has as its target T8, rHuman HGF R/c-MET/Fc Chimera, CF (R&D Systems Cat#358-MT/CF) (human, UniProt P08581 25-932).
T8 construct: Bought reagent; also called HGF R/Fc; hepatocyte growth factor receptor
Described as above.

Assay [9] deals with T9, rHuman Notch-1/Fc Chimera, CF (R&D Systems Cat#3647-TK) (human, UniProt P46531 19-526).
T9 construct: Bought reagent
Described as above.

Assay [10] concerns the target T10, rHuman ErbB2/Fc Chimera, CF (R&D Systems Cat#1129-ER) (human, UniProt P04626 23-652).
T10 construct: Bought reagent
As to the kind of experiment: ECL multispot (MSD), antigen spotted, Fab in solution; blank spot 407.

In assay [11] the target is T11, rHuman EGF R/Fc Chimera, CF (R&D Systems Cat#344-ER) (human, UniProt P00533 25-645).
T11 construct: Bought reagent
The description is as above.

Assay [12] has as its target T12, rHuman HGF R/c-MET/Fc Chimera, CF (R&D Systems Cat#358-MT/CF) (human, UniProt P08581 25-932).
T12 construct: Bought reagent; also called HGF R/Fc
The assay is described as above.

In assay [13] the target is T13, rHuman Notch-1/Fc Chimera, CF (R&D Systems Cat#3647-TK) (human, UniProt P46531 19-526).
T13 construct: Bought reagent
The assay is described as above.

Assay [14] addresses T14, rHuman CD44/Fc Chimera, CF (R&D Systems Cat#3660-CD) (human, UniProt P16070 21-220).
T14 construct: Bought reagent
The description is as above.

The target of assay [15] is T15, rHuman IGF-1 sR (insulin-like growth factor-1 soluble receptor), CF (R&D Systems Cat#391-GR) (human, UniProt P08069 31-932).
T15 construct: Bought soluble receptor
The description is as above.

The target of assay [16] is T16, rHuman P-Cadherin/Fc Chimera, CF (R&D Systems Cat#861-PC) (human, UniProt P22223 108-654).
T16 construct: Bought reagent
The description is as above.

The target in assay [17] is T17, rHuman Erythropoietin R/Fc Chimera, CF (R&D Systems Cat#963-ER) (human, UniProt P19235 25-250).
T17 construct: Bought reagent; also called EPO R; Epo R/Fc
T17 sequence (looked up): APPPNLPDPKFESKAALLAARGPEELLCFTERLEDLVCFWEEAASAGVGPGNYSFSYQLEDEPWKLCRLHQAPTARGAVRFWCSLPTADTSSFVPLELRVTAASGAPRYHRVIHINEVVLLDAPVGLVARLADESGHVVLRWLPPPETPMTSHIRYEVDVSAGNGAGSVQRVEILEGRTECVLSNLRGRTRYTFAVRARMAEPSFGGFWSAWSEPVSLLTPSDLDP
The assay is described as above.

The target in assay [18] is T18, Recombinant Human DLL4 (R&D Systems Cat#1506-D4/CF) (human, UniProt Q9NR61 27-524).
T18 construct: Bought recombinant protein; also called delta-like protein 4; rHuman DLL4
The description is as above.

The target of assay [19] is T10, rHuman ErbB2/Fc Chimera, CF (R&D …). As to the kind of experiment: ECL multispot (MSD), antigen spotted, Fab in solution; blank spot 262.
The target of assay [20] is T11, rHuman EGF R/Fc Chimera, CF (R&D …). The description is as above.
In assay [21] the target is T12, rHuman HGF R/c-MET/Fc Chimera, CF (R&D …). Described as above.
The target of assay [22] is T13, rHuman Notch-1/Fc Chimera, CF (R&D …). The assay is described as above.
For assay [23], the target named is T14, rHuman CD44/Fc Chimera, CF (R&D Systems …). The description is as above.
The target in assay [24] is T15, rHuman IGF-1 sR (insulin-like growth …). The description is as above.
The target of assay [25] is T16, rHuman P-Cadherin/Fc Chimera, CF (R&D …). Described as above.
Assay [26] addresses T17, rHuman Erythropoietin R/Fc Chimera, CF …. The description is as above.
Assay [27] addresses T18, Recombinant Human DLL4 (R&D Systems …). The assay is described as above.
In assay [28] the target is T10, rHuman ErbB2/Fc Chimera, CF (R&D …). As to the kind of experiment: ECL multispot (MSD), antigen spotted, Fab in solution; blank spot 416.
For assay [29], the target named is T11, rHuman EGF R/Fc Chimera, CF (R&D …). Described as above.
For assay [30], the target named is T12, rHuman HGF R/c-MET/Fc Chimera, CF (R&D …). The description is as above.
The target in assay [31] is T13, rHuman Notch-1/Fc Chimera, CF (R&D …). The description is as above.
For assay [32], the target named is T14, rHuman CD44/Fc Chimera, CF (R&D Systems …). Described as above.
In assay [33] the target is T15, rHuman IGF-1 sR (insulin-like growth …). The assay is described as above.
Assay [34] has as its target T16, rHuman P-Cadherin/Fc Chimera, CF (R&D …). The assay is described as above.
Assay [35] concerns the target T17, rHuman Erythropoietin R/Fc Chimera, CF …. The assay is described as above.
In assay [36] the target is T18, Recombinant Human DLL4 (R&D Systems …). The assay is described as above.

B1: Fab VH1-46_IGHD6-6*01_IGHJ1*01 S102A/S103P/S104F (APF) & L6_IGKJ1*01 Y32S (Fab, V domains shown)
VH: QVQLVQSGAEVKKPGASVKVSCKASGYTFTSYYMHWVRQAPGQGLEWMGIINPSGGSTSYAQKFQGRVTMTRDTSTSTVYMELSSLRSEDTAVYYCAREEYAPFSAEYFQHWGQGTLVTVSS
VL: EIVLTQSPATLSLSPGERATLSCRASQSVSSSLAWYQQKPGQAPRLLIYDASNRATGIPARFSGSGSGTDFTLTISSLEPEDFAVYYCQQRSNWPPWTFGQGTKVEIKR
notes: Fab format as for the parent (CH1 with His6/Flag tags, kappa CL); also called APF / Y32S
Regarding B1, the ECL signal was found to be 162 in [1]; 175 in assay [2]; 51 in assay [3]; 230 in assay [4]; 1030 in assay [5]; 154 in assay [6]. The ECL signal in [7] worked out at 208; in assay [8], 222; in assay [9] it was 137.

B2: Fab VH1-46_IGHD6-6*01_IGHJ1*01 S102A/S103P/S104F/H111F (APFF) & L6_IGKJ1*01 S30T (Fab, V domains shown)
VH: QVQLVQSGAEVKKPGASVKVSCKASGYTFTSYYMHWVRQAPGQGLEWMGIINPSGGSTSYAQKFQGRVTMTRDTSTSTVYMELSSLRSEDTAVYYCAREEYAPFSAEYFQFWGQGTLVTVSS
VL: EIVLTQSPATLSLSPGERATLSCRASQSVTSYLAWYQQKPGQAPRLLIYDASNRATGIPARFSGSGSGTDFTLTISSLEPEDFAVYYCQQRSNWPPWTFGQGTKVEIKR
notes: Tested as Fab made in E. coli: VH joined to CH1 from Plasmid A (His6 and Flag tags), VL joined to kappa CL from Plasmid C; also called APFF / S30T
Regarding B2, the ECL signal in [10] is 332; in [11], 360; in assay [12], 375; in assay [13] it was 413; in [14], 423; in assay [15] it was 410. For the same molecule, the ECL signal in assay [16] is 370; in [17], 497; in assay [18], 122000.

B3: Fab VH1-46_IGHD6-6*01_IGHJ1*01 S102A/S103P/S104F/H111F (APFF) & L6_IGKJ1*01 S30P (Fab, V domains shown)
VH: QVQLVQSGAEVKKPGASVKVSCKASGYTFTSYYMHWVRQAPGQGLEWMGIINPSGGSTSYAQKFQGRVTMTRDTSTSTVYMELSSLRSEDTAVYYCAREEYAPFSAEYFQFWGQGTLVTVSS
VL: EIVLTQSPATLSLSPGERATLSCRASQSVPSYLAWYQQKPGQAPRLLIYDASNRATGIPARFSGSGSGTDFTLTISSLEPEDFAVYYCQQRSNWPPWTFGQGTKVEIKR
notes: Tested as Fab made in E. coli: VH joined to CH1 from Plasmid A (His6 and Flag tags), VL joined to kappa CL from Plasmid C; also called APFF / S30P
B3: the ECL signal in assay [19] turned out to be 391; in assay [20], 394; in assay [21], 328; in assay [22], 544; in assay [23] it was 334; in assay [24] it was 356. For the same molecule, the results for the ECL signal in assay [25], in assay [26] and in assay [27] were 348, 520 and 1140, respectively.

B4: Fab VH1-46_IGHD6-6*01_IGHJ1*01 S102A/S103P/S104F/H111F (APFF) & L6_IGKJ1*01 S30R (Fab, V domains shown)
VH: QVQLVQSGAEVKKPGASVKVSCKASGYTFTSYYMHWVRQAPGQGLEWMGIINPSGGSTSYAQKFQGRVTMTRDTSTSTVYMELSSLRSEDTAVYYCAREEYAPFSAEYFQFWGQGTLVTVSS
VL: EIVLTQSPATLSLSPGERATLSCRASQSVRSYLAWYQQKPGQAPRLLIYDASNRATGIPARFSGSGSGTDFTLTISSLEPEDFAVYYCQQRSNWPPWTFGQGTKVEIKR
notes: Tested as Fab made in E. coli: VH joined to CH1 from Plasmid A (His6 and Flag tags), VL joined to kappa CL from Plasmid C; also called APFF / S30R
For B4, the ECL signal in [28] came to 434; in assay [29], 456; in [30] it was 458; in assay [31], 576; in assay [32] it was 455; in [33], 404. Besides, the ECL signal is 465 in assay [34], 571 in assay [35] and 146000 in [36].
